Reference: patent US20110085986A1, “Diagnosis and treatment of epithelial cancers using labeled/conjugated progastrin peptides” (priority 2009, published 2011)
Ends that are not written are not given here. Peptide text beside a SMILES is read from it. * marks the point of attachment. FITC = O=C1OC2(c3ccc(O)cc3Oc3cc(O)ccc32)c2ccc(NC(=S)*)cc21

Legend:
CCK1R = test: Affinity of amidated gastrins for CCK1R; assay type: binding
[1] = Biological activity of PG26
Source text: For data presented in FIGS. 2-4, 5A-5B and 6A-6E, the full length 80 amino acid rhPG was used (SEQ ID NO: 2), which was visualized by staining with fluorescently labeled primary or secondary antibodies. However, in order to examine the feasibility of using PG peptides for diagnostic and treatment purposes, synthesized FITC labeled PG fragments (PG26, SEQ ID NO 1: […]) conjugated with either radio- or fluorescently labeled imaging reagents (for diagnostic purposes), or with cytotoxic payloads (for therapeutic purposes) was studied. […] Endocytotic internalization of FITC-PG26 in PG responsive immortalized kidney embryonic cell line, HEK-293, was examined. Strong peri-nuclear co-localization of FITC-PG26 with Anx A2 was measured within 15 min of labeling in a chase experiment (FIG. 7). […] The homing potential of FITC-PG26 to Anx A2 over-expressing tumors, growing as xenografts in nude mice, was confirmed, as shown in FIGS. 8A-8E.

Anx A2 [2] = target: T1, Anx A2 (Rattus norvegicus, UniProt Q07936); conditions: Anx A2 prepared from cancer cells/tumor membranes; cited from earlier work
T1 construct: the 36 kDa Anx A2 protein, prepared from cancer cells/tumor membranes; endogenous in cells

colon cancer xenograft = test: Homing of FITC-PG26 to Anx A2 over-expressing tumors growing as xenografts in nude mice; assay type: in vivo
Protocol: FIGS. 8A-E depict 10-100 μg of FITC-PG-26 peptide was dissolved in 100 μl of saline was used to detect the tumor in nude mice. The images were captured in live mice after 1-60 minutes, with injection on the tumor site (FIG. 8A) or through tail vein (FIGS. 8B-D). In FIG. 8B, the localization of tumor cells are marked with arrows detected after 5 minutes post tail vein injection.
For data presented in FIGS. 2-4, 5A-5B and 6A-6E, the full length 80 amino acid rhPG was used (SEQ ID NO: 2), which was visualized by staining with fluorescently labeled primary or secondary antibodies. […] Strong peri-nuclear co-localization of FITC-PG26 with Anx A2 was measured within 15 min of labeling in a chase experiment (FIG. 7). […]
The 26 amino acid PG peptide (PG26), labeled with FITC at the N-terminal end, specifically homed to the site of a colon cancer xenograft, growing either under the skin or growing as a metastatic lesion in the liver. […] Even small tumor lesions were detected with FITC-PG26 after […] of tail vein injection (FIG. 8B). FITC-control peptide was not detected after 30 min of injecting into the tail vein (FIG. 8E), confirming the specificity of FITC-PG26 peptide for homing to tumors in situ.

IEC-18 cells = test: Intra-cellular translocation of PG in IEC-18 cells (confocal microscopy, pull down/WB, Anx A2 siRNA); assay type: cell-based
Protocol: FIGS. 6A-6E depict the binding of PG with ANXII. FIG. 6A depicts immuno-colocalization of ANXII/PG in IEC cells, incubated with PG. E. IEC-18 cells were seeded, on sterile glass cover slips. Following overnight culture cells were incubated with PG (1 nM) from 0-15 min, and washed 3× with chilled PBS. Cells were fixed in acetone:methanol for 20 min at −20° C., and incubated with anti-PG or anti-ANXII-Abs, followed by fluorescence labeling with second Abs. Images were captured by confocal microscopy at 60×. Insets represent computer assisted enlarged images. Arrows depict co-localization on membranes. […] Cells in culture were detached with liberase to make single cell suspensions and incubated with either non-immune IgG or anti-ANXII-Ab for 2 hours at room temperature, washed with chilled PBS followed by incubation with FITC-second-Ab for 1 hours at room temperature. FIG. 6C depicts IEC-18 cells in culture treated with PG for 0-15 min except for Lamp1 (treated for 0-30 min) at 37° C. and washed with chilled PBS 3×. Cells were processed for pull down with anti-PG-Ab and processed for WB analysis for either EEA1/ANXII/PG/Lamp1. […] The inset portion of the co-localization staining is also shown.
(§1) Adenoma and adenocarcinomas tissue sections (from ovarian and colorectal cancers of patients) were positive for Anx A2 expression, while normal tissues were negative (FIGS. 4, 5A-5B). Immortalized intestinal epithelial cell line (IEC-18) are used, which responds to the growth and anti-apoptotic effects of PG peptides (9), for further investigating the biology of interaction of PG with Anx A2. Intra-cellular translocation of labeled PG was examined in IEC-18 cells. […] Using fluoroscense assisted sorting with labeled anti-Anx A2-Abs, presence of extracellular Anx A2 was confirmed on IEC-18 cells (FIG. 6B).
Since Anx A2 lacks transmembrane domains, mechanisms mediating translocation of Anx A2/PG from outer cell membranes towards intracellular compartments remains unknown. Anx A2 also binds transmembrane proteins such as CD44, which are over-expressed in cancer cells. Thus the tumor specific expression of CD44-like transmembrane proteins offers an additional level of cancer-specific regulation, allowing intra-cellular translocation of PG-Anx A2 only in tumor cells. […] Co-localization of PG/Anx A2 with the early endosomal marker (EEA1) was examined. Cellular lysates from IEC-18 cells, treated with PG for 0, 5 and 15 min, were pulled down with anti-PG Abs and processed for WB analysis for EEA1, Lamp1 (lysomal marker), Anx A2 and PG (FIG. 6C). Possible in situ co-localization of EEA1 with PG was also examined after 15 min of PG stimulation by confocal microscopy (FIG. 6D). […]

[3] = system: immortalized cells (IEC, HEK-293) and cancer cell lines (from ovaries/colons); test: Co-localization of PG with Anx A2 in PG-responsive cells; assay type: cell-based; conditions: cells responsive to growth effects of PG peptides
Source text: as §1

Anx A2 [4] = target: Anx A2 (Homo sapiens, UniProt P07355); test: In vitro binding assay and co-IP of rhPG and ANX-II; conditions: in vitro binding assay, FIG. 3
Source text: Lane 1 is rhPG; lane 2 is ANX-II; lanes 3 and 4 are rhPG and ANX-II; lane 3 is IP with anti-PG (aPG); lane 4 is IP with anti-ANX-II (aANX-II). All the samples were processed for WB with both aPG and ANX-II.
as §1

T1 sequence (Q07936 whole entry): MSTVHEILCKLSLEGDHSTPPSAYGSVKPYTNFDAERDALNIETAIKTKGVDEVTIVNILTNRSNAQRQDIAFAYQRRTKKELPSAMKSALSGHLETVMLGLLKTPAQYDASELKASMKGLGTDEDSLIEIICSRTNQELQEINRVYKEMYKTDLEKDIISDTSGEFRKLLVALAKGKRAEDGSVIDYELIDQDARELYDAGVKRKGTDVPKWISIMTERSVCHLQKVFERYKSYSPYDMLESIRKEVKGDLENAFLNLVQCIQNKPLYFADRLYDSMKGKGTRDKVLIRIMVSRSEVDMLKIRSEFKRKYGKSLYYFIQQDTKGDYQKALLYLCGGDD
Anx A2 (Homo sapiens, UniProt P07355), sequence (P07355 whole entry, species assumed): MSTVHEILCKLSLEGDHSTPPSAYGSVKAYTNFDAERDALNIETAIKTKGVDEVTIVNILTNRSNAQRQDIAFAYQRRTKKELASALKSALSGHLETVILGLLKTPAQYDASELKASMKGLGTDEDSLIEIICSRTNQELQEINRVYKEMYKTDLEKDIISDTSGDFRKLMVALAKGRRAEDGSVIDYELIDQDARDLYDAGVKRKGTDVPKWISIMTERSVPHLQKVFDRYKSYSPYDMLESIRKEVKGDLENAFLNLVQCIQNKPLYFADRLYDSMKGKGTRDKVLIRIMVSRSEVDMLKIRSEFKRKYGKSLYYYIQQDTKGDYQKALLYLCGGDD

For G17: amidated gastrin, the “affinity for CCK1R” value (CCK1R) was “much higher affinity”.

With “QGPWLEEEEEAYGWMDFGRRSAEDEN (homing progastrin peptide specifically binding annexin2) [PG26, 26 amino acid PG peptide fragment]” the biological activity [1] was “biologically active”.

For “CCK8: cholecystokinin CCK8 [reference compound]”, the “Relative binding affinity (RBA) for the 36 kDa Anx A2 protein, rank order” value (“Relative binding affinity (RBA)” for short) (Anx A2 [2]) is listed as “no affinity”.

For “G34: amidated gastrin (QLGPQGPPHLVADPSKKQGPWLEEEEEAYGWMDF-NH2; ends and bridges not checked; UniProt P01350 59-92, looked up)”, the “affinity for CCK1R” value (CCK1R) was “much higher affinity”.

With `CSCC[C@H](NC(=O)[C@H](Cc1c[nH]c2ccccc12)NC(=O)CNC(=O)[C@H](Cc1ccc(O)cc1)NC(=O)[C@H](C)NC(=O)[C@H](CCC(=O)O)NC(=O)[C@H](CCC(=O)O)NC(=O)[C@H](CCC(=O)O)NC(=O)[C@H](CCC(=O)O)NC(=O)[C@H](CCC(=O)O)NC(=O)[C@H](CC(C)C)NC(=O)[C@H](Cc1c[nH]c2ccccc12)NC(=O)[C@@H]1CCCN1C(=O)CNC(=O)[C@H](CCC(N)=O)NC(=S)Nc1ccc2c(c1)C(=O)OC21c2ccc(O)cc2Oc2cc(O)ccc21)C(=O)N[C@@H](CC(=O)O)C(=O)N[C@@H](Cc1ccccc1)C(=O)NCC(=O)N[C@@H](CCCNC(=N)N)C(=O)N[C@@H](CCCNC(=N)N)C(=O)N[C@@H](CO)C(=O)N[C@@H](C)C(=O)N[C@@H](CCC(=O)O)C(=O)N[C@@H](CC(=O)O)C(=O)N[C@@H](CCC(=O)O)C(=O)N[C@@H](CC(N)=O)C(=O)O` [FITC-PG26] ({FITC}-QGPWLEEEEEAYGWMDFGRRSAEDEN-OH; N-terminus and C-terminus assumed) the “retention in the tumor” value (colon cancer xenograft; i.v. injection through the tail vein, FIG. 8C) was roughly 60 min and the “retention of fluorescence in tumor” value (colon cancer xenograft; injected intra-tumorally, FIG. 8A) was greater than 20 min.

B1: PG: full length 80 amino acid rhPG (SEQ ID NO: 2) (protein)
chain: SWKPRSQQPDAPLGTGANRDLELPWLEQQGPASHHRRQLGPQGPPHLVADPSKKQGPWLEEEEEAYGWMDFGRRSAEDEN
modifications: recombinant human progastrin
In the case of B1, the PG binding/uptake (IEC-18 cells; IEC18 cells treated with specific siRNA against Anx A2, FIG. 6E) is reported as “completely negative”, the “localization of PG/Anx A2 after addition of PG” value (IEC-18 cells; IEC-18 cells, FIG. 6A) is reported as “initial co-localization of PG with Anx A2 on the cellular membranes, followed by rapid intracellular localization” and the “time to translocation of Anx A2 and PG into early endosomes” value (IEC-18 cells; after PG stimulation, IEC-18 cells) is reported as no more than 5 min. The “increase in co-IP of Lamp1 with PG” value (IEC-18 cells; later time points, FIG. 6C) was roughly 5 fold, the “Relative binding affinity (RBA)” value (Anx A2 [2]) was “PG>G-Gly>G17” and the “co-localization of PG with Anx A2” value [3] was “strong co-localization”. For the same molecule, the “binding of Anx A2 and rhPG” value (Anx A2 [4]) was “Direct binding”.

B2: G-Gly: glycine-extended gastrin, processing intermediate of progastrin (peptide)
peptide: SWKPRSQQPDAPLGTGANRDLELPWLEQQGPASHHRRQLGPQGPPHLVADPSKKQGPWLEEEEEAYGWMDFGRRSAEDEN
For B2, the “Relative binding affinity (RBA)” value (Anx A2 [2]) is listed as “PG>G-Gly>G17”.
